Results taken from article PMC7733473, “Aberrant interaction of FUS with the U1 snRNA provides a molecular mechanism of FUS induced amyotrophic lateral sclerosis”.

Columns and labels:
FUS-RRM (RRM-RGG2) [1] = biological target: FUS-RRM (RRM-RGG2) (UniProt P35637); test: ITC; details: n = 0.85; K = (1.25 ± 0.08)e5; 13C/15N in RNA-observed NMR; ITC: 10 mM Na phosphate pH 6.8, 50 mM NaCl, 1 mM β-mercaptoethanol, 25 °C; NMR 313 K; SEC: 10 mM Na phosphate pH 6.8, 100 mM NaCl, 2 mM DTT; EMSA: 10 mM HEPES …
FUS-RRM (RRM-RGG2) (UniProt P35637), sequence (P35637 260-390): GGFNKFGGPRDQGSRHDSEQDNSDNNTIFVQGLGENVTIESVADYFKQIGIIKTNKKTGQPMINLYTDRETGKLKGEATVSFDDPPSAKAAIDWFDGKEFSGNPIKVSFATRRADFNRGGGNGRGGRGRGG

FUS-RBD (RRM-RGG2-ZnF) [2] = test: competition; details: equimolar Sm proteins and U1-70K (1-216) present; ITC: 10 mM Na phosphate pH 6.8, 50 mM NaCl, 1 mM β-mercaptoethanol, 25 °C; NMR 313 K; SEC: 10 mM Na phosphate pH 6.8, 100 mM NaCl, 2 mM DTT; EMSA: 10 mM HEPES …; scale: % reduction of FUS capacity to impair core snRNP assembly
[3] = system: FUS-RBD WT, EMSA construct; test: EMSA; details: 5 mM Mg2+, yeast tRNA and salmon sperm DNA; value given jointly with ITC; ITC: 10 mM Na phosphate pH 6.8, 50 mM NaCl, 1 mM β-mercaptoethanol, 25 °C; NMR 313 K; SEC: 10 mM Na phosphate pH 6.8, 100 mM NaCl, 2 mM DTT; EMSA: 10 mM HEPES …
FUS-RBD (RRM-RGG2-ZnF) [4] = test: ITC; details: n = 0.92; K = (1.37 ± 0.23)e7; ITC: 10 mM Na phosphate pH 6.8, 50 mM NaCl, 1 mM β-mercaptoethanol, 25 °C; NMR 313 K; SEC: 10 mM Na phosphate pH 6.8, 100 mM NaCl, 2 mM DTT; EMSA: 10 mM HEPES …
FUS-RRM (RRM-RGG2) [5] = biological target: FUS-RRM (RRM-RGG2) (UniProt P35637 260-390); test: NMR titration; ITC: 10 mM Na phosphate pH 6.8, 50 mM NaCl, 1 mM β-mercaptoethanol, 25 °C; NMR 313 K; SEC: 10 mM Na phosphate pH 6.8, 100 mM NaCl, 2 mM DTT; EMSA: 10 mM HEPES pH 7.3, 100 mM KCl, 5 mM MgCl2, tRNA and ssDNA 10 µg/ml each, room temperature; details: protein: recombinant
FUS-RRM (RRM-RGG2) (UniProt P35637 260-390), sequence (P35637 260-390): as above

Molecule: U1 SL3
- Kd (FUS-RRM (RRM-RGG2) [1]): 8000 nM

Molecule: U1 SL34
- binding signal (FUS-RBD (RRM-RGG2-ZnF) [2]): 75
- Kd [3]: 70 nM
- Kd (FUS-RBD (RRM-RGG2-ZnF) [4]): 70 nM

Molecule: GGACUUGAAAUAUAGUCC (structured_RNA) [U4 3'-ISL fragment]
- binding result (FUS-RRM (RRM-RGG2) [5]; hairpin): binds

Molecule: UAUACUAA (ssRNA) [U6 21-28]
- binding result (FUS-RRM (RRM-RGG2) [5]; single strand): binds

Molecule: GGCUCUGGUUUCUUCGGGAACAACUCUGAGCC (structured_RNA) [U5 IL-1 fragment]
- binding result (FUS-RRM (RRM-RGG2) [5]; hairpin with internal bulge, UUCG loop): binds
